For 9 molecules, EC50, activation of A204/CAGAx12-Luc cells (Smad 2/3-luciferase reporter), binding response (resonance units) for 200 nM ligand and EC50 [M]; activation of W-20-17/BRE-luc luciferase reporter cells results are on record in patent US20150037339A1.

The chains are these.
B1: Activin A, P08476 311-426 (ligand)
chain: GLECDGKVNICCKKQFFVSFKDIGWNDWIIAPSGYHANYCEGECPSHIAGTSGSSLSFHSTVINHYRMRGHSPFANLKSCCVPTKLRPMSMLYYDDGQNIIKKDIQNMIVEECGCS
B2: Activin AB, P08476 311-426; P09529 293-407 (ligand)
chain 1: B1 chain
chain 2: GLECDGRTNLCCRQQFFIDFRLIGWNDWIIAPTSYYGNYCEGSCPAYLAGVPGSASSFHTAVVNQYRMRGLNPGTVNSCCIPTKLSTMSMLYFDDEYNIVKRDVPNMIVEECGCA
B3: Activin AC, P55103 237-352 (ligand, human)
chain 1: B1 chain
chain 2: GIDCQGGSRMCCRQEFFVDFREIGWHDWIIQPEGYAMNFCIGQCPLHIAGMPGIAASFHTAVLNLLKANTAAGTTGGGSCCVPTARRPLSLLYYDRDSNIVKTDIPDMVVEACGCS
B4: Activin B, P09529 293-407 (ligand)
chain: B2 chain 2
B5: H4H10429P (antibody, human IgG4, V domains shown)
VH: QVQLVESGGGVVQPGRSLRLSCVASGFTVSSYGIHWVRQAPGKGLEWVSVIWYDGRNKDYADSVKGRFTISRDNSKNTVYLEMKGLRAEDTALYYCARDKTGDFDSWGQGTLVTVSS
VL: DIQMTQSPSSLSASVGDRVTITCRASQNINSFLSWYQQKPGKAPKFLIYDASSIQSGAPSRFSGSGSGTDFTLTISSLQPEDFATYYCQQSYSSPFTFGQGTKLEIK
B6: BMP4 (ligand, human, UniProt P12644 293-408, looked up)
chain: SPKHHSQRARKKNKNCRRHSLYVDFSDVGWNDWIVAPPGYQAFYCHGDCPFPLADHLNSTNHAIVQTLVNSVNSSIPKACCVPTELSAISMLYLDEYDKVVLKNYQEMVVEGCGCR
B7: BMP2 (ligand, human, UniProt P12643 283-396, looked up)
chain: QAKHKQRKRLKSSCKRHPLYVDFSDVGWNDWIVAPPGYHAFYCHGECPFPLADHLNSTNHAIVQTLVNSVNSKIPKACCVPTELSAISMLYLDENEKVVLKNYQDMVVEGCGCR
B8: BMP9 (ligand, human, UniProt Q9UK05 320-429, looked up)
chain: SAGAGSHCQKTSLRVNFEDIGWDSWIIAPKEYEAYECKGGCFFPLADDVTPTKHAIVQTLVHLKFPTKVGKACCVPTKLSPISVLYKDDMGVPTLKYHYEGMSVAECGCR
B9: BMP10 (ligand, human, UniProt O95393 317-424, looked up)
chain: NAKGNYCKRTPLYIDFKEIGWDSWIIAPPGYEAYECRGVCNYPLAEHLTPTKHAIIQALVHLKNSQKASKACCVPTKLEPISILYLDKGVVTYKFKYEGMAVSECGCR

For one experiment, the target named is activin Type II receptors. Put plainly: cell-based or functional assay.
For the molecule B1, the EC50, activation of A204/CAGAx12-Luc cells (Smad 2/3-luciferase reporter) is 99 pM.

As to B2, the EC50, activation of A204/CAGAx12-Luc cells (Smad 2/3-luciferase reporter) stood at 19 pM. Molecule B3 came in with an EC50, activation of A204/CAGAx12-Luc cells (Smad 2/3-luciferase reporter) of 4400 pM. B4 had an EC50, activation of A204/CAGAx12-Luc cells (Smad 2/3-luciferase reporter) of 47 pM.

Another experiment deals with hBMP7 (human) (UniProt P18075). Put plainly: SPR (Biacore 4000), captured on anti-human Fc, 200 nM ligand injected, 37 C.
Sequence of hBMP7 (human) (P18075 293-431 limits assumed): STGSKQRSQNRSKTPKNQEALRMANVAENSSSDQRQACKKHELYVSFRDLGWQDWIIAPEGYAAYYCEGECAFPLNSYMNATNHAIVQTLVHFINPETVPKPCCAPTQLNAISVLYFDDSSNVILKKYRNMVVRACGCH
With B5, the binding response (resonance units) for 200 nM ligand is 9.2 RU.

A further experiment has as its target BMP receptor types I and II (on W-20-17/BRE-luc cells). The experiment in a line: cell-based or functional assay.
B6 had an EC50 [M]; activation of W-20-17/BRE-luc luciferase reporter cells of 6.3e-11 M.

As for B7, the EC50 [M]; activation of W-20-17/BRE-luc luciferase reporter cells was 3.4e-11 M. In turn, B8 came in with an EC50 [M]; activation of W-20-17/BRE-luc luciferase reporter cells of 2.6e-10 M. B9 displayed an EC50 [M]; activation of W-20-17/BRE-luc luciferase reporter cells of 2.5e-09 M.
